PMC9482650, “Quantitative fragmentomics allow affinity mapping of interactomes” (Nature Communications, 2022)

T1: CARD11, Q9BXL7
T1 sequence (Q9BXL7 662-765, limits assumed, looked up): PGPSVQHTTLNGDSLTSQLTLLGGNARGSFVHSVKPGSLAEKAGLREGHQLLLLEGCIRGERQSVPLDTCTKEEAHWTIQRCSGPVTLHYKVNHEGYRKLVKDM

T2: GRIP1_4, Q9Y3R0
T2 sequence (Q9Y3R0 467-571, limits assumed, looked up): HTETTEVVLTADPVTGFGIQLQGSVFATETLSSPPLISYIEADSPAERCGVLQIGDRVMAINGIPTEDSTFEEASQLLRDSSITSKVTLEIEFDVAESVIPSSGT

T3: LIN7C, Q9NUP9
T3 sequence (Q9NUP9 88-185, limits assumed, looked up): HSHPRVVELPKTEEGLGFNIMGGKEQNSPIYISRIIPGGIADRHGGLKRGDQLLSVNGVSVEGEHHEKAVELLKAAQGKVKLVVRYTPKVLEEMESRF

T4: PARD3B_1, Q8TEW8
T4 sequence (Q8TEW8 196-299, limits assumed, looked up): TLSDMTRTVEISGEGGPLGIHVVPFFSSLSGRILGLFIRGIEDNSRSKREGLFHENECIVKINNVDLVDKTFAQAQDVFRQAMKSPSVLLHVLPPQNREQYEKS

T5: SIPA1L2, Q9P2F8
T5 sequence (Q9P2F8 945-1036, limits assumed, looked up): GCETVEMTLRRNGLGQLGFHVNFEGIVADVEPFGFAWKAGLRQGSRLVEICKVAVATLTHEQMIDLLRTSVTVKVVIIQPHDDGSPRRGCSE

T6: RHPN1, Q8TCX5
T6 sequence (Q8TCX5 508-602, limits assumed, looked up): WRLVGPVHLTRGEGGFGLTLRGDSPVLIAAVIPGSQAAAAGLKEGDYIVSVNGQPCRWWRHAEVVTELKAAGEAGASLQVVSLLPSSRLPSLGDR

T7: MPDZ_12, O75970
T7 sequence (O75970 1857-1958, limits assumed, looked up): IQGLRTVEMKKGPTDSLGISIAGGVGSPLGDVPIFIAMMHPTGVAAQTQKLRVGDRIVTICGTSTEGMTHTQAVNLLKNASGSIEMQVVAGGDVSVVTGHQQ

T8: SHANK1, Q9Y566
T8 sequence (Q9Y566 658-767, limits assumed, looked up): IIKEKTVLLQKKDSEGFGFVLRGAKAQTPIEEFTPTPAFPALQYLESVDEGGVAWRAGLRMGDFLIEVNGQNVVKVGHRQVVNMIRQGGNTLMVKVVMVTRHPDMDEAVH


Tests used:
Assay in all cases: holdup assay
Set-up in all cases: key: below the threshold = too weak to quantify, mostly under pKd 3.1 to 4
Details in all cases: plain residues with an end cap or a label only (N-terminal biotin on a linker: ado-ado)
CARD11, Q9BXL7 = biological target: T1, CARD11, Q9BXL7
SNX27, Q96L92 = biological target: SNX27, Q96L92
GRIP1_4, Q9Y3R0 = biological target: T2, GRIP1_4, Q9Y3R0
NHERF2_2, Q15599 = biological target: NHERF2_2, Q15599
SCRIB_3, Q14160 = biological target: SCRIB_3, Q14160
Inadl_1, Q8NI35 = biological target: Inadl_1, Q8NI35
MAGI2_2, Q86UL8 = biological target: MAGI2_2, Q86UL8
FRMPD2_2, Q68DX3 = biological target: FRMPD2_2, Q68DX3
LDB3, O75112 = biological target: LDB3, O75112
LIN7C, Q9NUP9 = biological target: T3, LIN7C, Q9NUP9
LNX1_3, Q8TBB1 = biological target: LNX1_3, Q8TBB1
FRMPD4, Q14CM0 = biological target: FRMPD4, Q14CM0
MAGI2_6, Q86UL8 = biological target: MAGI2_6, Q86UL8
GORASP1, Q9BQQ3 = biological target: GORASP1, Q9BQQ3
PARD3B_1, Q8TEW8 = biological target: T4, PARD3B_1, Q8TEW8
SIPA1L2, Q9P2F8 = biological target: T5, SIPA1L2, Q9P2F8
GRID2IP_2, A4D2P6 = biological target: GRID2IP_2, A4D2P6
RHPN1, Q8TCX5 = biological target: T6, RHPN1, Q8TCX5
NHERF4_4, Q86UT5 = biological target: NHERF4_4, Q86UT5
MPDZ_12, O75970 = biological target: T7, MPDZ_12, O75970
DLG1_3, Q12959 = biological target: DLG1_3, Q12959
Inadl_2, Q8NI35 = biological target: Inadl_2, Q8NI35
HTRA2, O43464 = biological target: HTRA2, O43464
Inadl_6, Q8NI35 = biological target: Inadl_6, Q8NI35
DLG4_1, P78352 = biological target: DLG4_1, P78352
NHERF4_1, Q86UT5-2 = biological target: NHERF4_1, Q86UT5-2
SHANK1, Q9Y566 = biological target: T8, SHANK1, Q9Y566
PTPN3, P26045 = biological target: PTPN3, P26045
GRIP2_4, Q9C0E4 = biological target: GRIP2_4, Q9C0E4
GRIP2_4, Q9C0E4, sequence (Q9C0E4 446-548): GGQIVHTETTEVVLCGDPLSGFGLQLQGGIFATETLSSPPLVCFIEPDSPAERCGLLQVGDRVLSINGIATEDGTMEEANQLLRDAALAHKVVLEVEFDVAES

DLG4_1, P78352, sequence (P78352 62-152): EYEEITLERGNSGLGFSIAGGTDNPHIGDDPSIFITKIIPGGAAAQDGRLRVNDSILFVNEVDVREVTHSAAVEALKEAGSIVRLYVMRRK
GRID2IP_2, A4D2P6, sequence (A4D2P6 272-370): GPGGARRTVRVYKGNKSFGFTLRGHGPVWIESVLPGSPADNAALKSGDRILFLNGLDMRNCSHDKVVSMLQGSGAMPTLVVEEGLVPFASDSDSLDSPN
SCRIB_3, Q14160, sequence (Q14160 999-1103): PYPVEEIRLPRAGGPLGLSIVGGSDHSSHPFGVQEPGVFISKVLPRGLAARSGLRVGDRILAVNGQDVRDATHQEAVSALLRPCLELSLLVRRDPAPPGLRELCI
MAGI2_6, Q86UL8, sequence (Q86UL8 1141-1229): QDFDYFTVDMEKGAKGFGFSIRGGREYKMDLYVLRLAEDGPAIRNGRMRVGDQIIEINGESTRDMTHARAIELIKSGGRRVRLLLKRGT
Inadl_6, Q8NI35, sequence (Q8NI35 1058-1167): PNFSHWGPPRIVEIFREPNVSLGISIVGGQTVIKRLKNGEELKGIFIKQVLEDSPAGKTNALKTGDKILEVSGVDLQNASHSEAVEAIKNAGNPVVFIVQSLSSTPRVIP
NHERF2_2, Q15599, sequence (Q15599 142-238): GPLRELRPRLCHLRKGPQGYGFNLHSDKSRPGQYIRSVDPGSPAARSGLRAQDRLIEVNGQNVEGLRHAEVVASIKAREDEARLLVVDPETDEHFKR
DLG1_3, Q12959, sequence (Q12959 457-571): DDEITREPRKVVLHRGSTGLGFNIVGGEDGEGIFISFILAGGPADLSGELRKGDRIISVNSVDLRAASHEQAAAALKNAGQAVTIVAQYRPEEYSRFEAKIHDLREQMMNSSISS
PTPN3, P26045, sequence (P26045 505-587): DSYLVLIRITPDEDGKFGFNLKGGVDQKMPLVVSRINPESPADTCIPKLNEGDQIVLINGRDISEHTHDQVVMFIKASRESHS
FRMPD2_2, Q68DX3, sequence (Q68DX3 944-1038): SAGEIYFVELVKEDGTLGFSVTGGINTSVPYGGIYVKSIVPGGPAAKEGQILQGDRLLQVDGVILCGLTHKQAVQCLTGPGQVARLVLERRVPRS
Inadl_1, Q8NI35, sequence (Q8NI35 113-229): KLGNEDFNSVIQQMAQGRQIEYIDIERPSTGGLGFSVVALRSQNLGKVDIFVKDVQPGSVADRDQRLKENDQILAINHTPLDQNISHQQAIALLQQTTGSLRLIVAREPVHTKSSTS
HTRA2, O43464, sequence (O43464 355-458): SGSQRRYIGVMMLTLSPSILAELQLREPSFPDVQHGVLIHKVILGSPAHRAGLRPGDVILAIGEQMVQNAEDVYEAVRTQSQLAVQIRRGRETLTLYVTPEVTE
GORASP1, Q9BQQ3, sequence (Q9BQQ3 1-208): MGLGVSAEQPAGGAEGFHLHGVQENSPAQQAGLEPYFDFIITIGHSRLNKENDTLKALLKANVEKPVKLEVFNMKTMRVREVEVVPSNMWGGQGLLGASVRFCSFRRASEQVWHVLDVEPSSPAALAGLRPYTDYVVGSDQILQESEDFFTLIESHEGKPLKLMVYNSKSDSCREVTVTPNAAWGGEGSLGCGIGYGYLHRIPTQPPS
MAGI2_2, Q86UL8, sequence (Q86UL8 410-522): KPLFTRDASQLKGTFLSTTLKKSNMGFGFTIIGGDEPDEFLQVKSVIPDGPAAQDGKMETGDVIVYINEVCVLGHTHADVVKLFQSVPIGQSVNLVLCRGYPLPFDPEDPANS
Inadl_2, Q8NI35, sequence (Q8NI35 238-335): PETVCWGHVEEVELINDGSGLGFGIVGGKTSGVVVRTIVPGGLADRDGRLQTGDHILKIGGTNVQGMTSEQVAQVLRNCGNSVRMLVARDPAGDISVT
LDB3, O75112, sequence (O75112 1-94): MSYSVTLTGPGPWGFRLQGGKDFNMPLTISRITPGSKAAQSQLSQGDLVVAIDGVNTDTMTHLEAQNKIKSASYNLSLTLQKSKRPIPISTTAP
NHERF4_4, Q86UT5, sequence (Q86UT5 464-550): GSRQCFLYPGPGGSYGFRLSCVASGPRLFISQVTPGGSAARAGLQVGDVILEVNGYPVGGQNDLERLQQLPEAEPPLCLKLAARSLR
LNX1_3, Q8TBB1, sequence (Q8TBB1 500-596): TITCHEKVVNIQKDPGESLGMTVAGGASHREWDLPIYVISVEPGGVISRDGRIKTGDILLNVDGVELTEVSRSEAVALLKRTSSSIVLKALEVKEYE
NHERF4_1, Q86UT5-2, sequence (Q86UT5 other isoform, or with tags, fused parts or gaps): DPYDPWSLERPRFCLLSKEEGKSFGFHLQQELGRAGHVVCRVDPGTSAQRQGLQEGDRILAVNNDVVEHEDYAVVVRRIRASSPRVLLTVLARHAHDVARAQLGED
FRMPD4, Q14CM0, sequence (Q14CM0 67-160): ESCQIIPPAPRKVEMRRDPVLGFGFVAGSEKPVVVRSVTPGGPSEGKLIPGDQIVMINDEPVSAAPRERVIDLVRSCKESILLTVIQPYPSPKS

pKd (CARD11, Q9BXL7) | pKd (SNX27, Q96L92) | pKd (GRIP1_4, Q9Y3R0) | pKd (NHERF2_2, Q15599) | pKd (SCRIB_3, Q14160) | pKd (Inadl_1, Q8NI35) | pKd (MAGI2_2, Q86UL8) | pKd (FRMPD2_2, Q68DX3) | pKd (LDB3, O75112) | pKd (LIN7C, Q9NUP9) | pKd (LNX1_3, Q8TBB1) | pKd (FRMPD4, Q14CM0) | pKd (MAGI2_6, Q86UL8) | pKd (GORASP1, Q9BQQ3) | pKd (PARD3B_1, Q8TEW8) | pKd (SIPA1L2, Q9P2F8) | pKd (GRID2IP_2, A4D2P6) | pKd (RHPN1, Q8TCX5) | pKd (NHERF4_4, Q86UT5) | pKd (MPDZ_12, O75970) | Binder | also measured
below the threshold | 5.62 | below the threshold | 4.7 | 4.02 | below the threshold | below the threshold | below the threshold | below the threshold | below the threshold | below the threshold | below the threshold | 4 | below the threshold | 4.49 | below the threshold | 3.49 | 4.08 | below the threshold | below the threshold | NNMAFETTHF [SLC5A12, Q1EHB4] | pKd (DLG1_3, Q12959): below the threshold; pKd (Inadl_2, Q8NI35): below the threshold; pKd (HTRA2, O43464): below the threshold; pKd (Inadl_6, Q8NI35): below the threshold; pKd (DLG4_1, P78352): below the threshold; pKd (NHERF4_1, Q86UT5-2): 4.35; pKd (SHANK1, Q9Y566): 5.81; pKd (PTPN3, P26045): below the threshold; pKd (GRIP2_4, Q9C0E4): below the threshold
below the threshold | 5.65 | below the threshold | 5.14 | 4.64 | below the threshold | below the threshold | below the threshold | below the threshold | below the threshold | below the threshold | 4.12 | 3.75 | 4.31 | 4.43 | below the threshold | 4.11 | 4.41 | below the threshold | below the threshold | LLQEEWETVM [PTH1R, Q03431] | pKd (DLG1_3, Q12959): below the threshold; pKd (Inadl_2, Q8NI35): below the threshold; pKd (HTRA2, O43464): below the threshold; pKd (Inadl_6, Q8NI35): 4.12; pKd (DLG4_1, P78352): below the threshold; pKd (NHERF4_1, Q86UT5-2): 3.56; pKd (SHANK1, Q9Y566): 4.85; pKd (PTPN3, P26045): 4.92; pKd (GRIP2_4, Q9C0E4): below the threshold
below the threshold | 3.65 | below the threshold | 3.92 | below the threshold | below the threshold | below the threshold | below the threshold | below the threshold | below the threshold | below the threshold | 3.58 | below the threshold | below the threshold | below the threshold | 3.53 | 5.18 | below the threshold | below the threshold | below the threshold | KKTPVSRSHL [SLC22A3, O75751] | pKd (DLG1_3, Q12959): below the threshold; pKd (Inadl_2, Q8NI35): below the threshold; pKd (HTRA2, O43464): below the threshold; pKd (Inadl_6, Q8NI35): below the threshold; pKd (DLG4_1, P78352): 3.55; pKd (NHERF4_1, Q86UT5-2): 3.94; pKd (SHANK1, Q9Y566): 4.54; pKd (PTPN3, P26045): below the threshold; pKd (GRIP2_4, Q9C0E4): below the threshold
below the threshold | 3.68 | below the threshold | 4.44 | 4.02 | below the threshold | below the threshold | below the threshold | below the threshold | below the threshold | below the threshold | 3.57 | below the threshold | below the threshold | 3.72 | below the threshold | 3.84 | 3.67 | below the threshold | below the threshold | SSSVNVSSNL [CXCR1, P25024] | pKd (DLG1_3, Q12959): below the threshold; pKd (Inadl_2, Q8NI35): below the threshold; pKd (HTRA2, O43464): below the threshold; pKd (Inadl_6, Q8NI35): below the threshold; pKd (DLG4_1, P78352): below the threshold; pKd (NHERF4_1, Q86UT5-2): 3.74; pKd (SHANK1, Q9Y566): 3.94; pKd (PTPN3, P26045): 4.48; pKd (GRIP2_4, Q9C0E4): below the threshold
3.73 | 5.43 | below the threshold | below the threshold | below the threshold | below the threshold | below the threshold | 3.56 | below the threshold | below the threshold | below the threshold | below the threshold | 3.48 | below the threshold | below the threshold | below the threshold | below the threshold | 4.44 | below the threshold | below the threshold | LPPPESESKV [KCNJ9, Q92806] | pKd (DLG1_3, Q12959): below the threshold; pKd (Inadl_2, Q8NI35): below the threshold; pKd (HTRA2, O43464): below the threshold; pKd (Inadl_6, Q8NI35): below the threshold; pKd (DLG4_1, P78352): below the threshold; pKd (NHERF4_1, Q86UT5-2): below the threshold; pKd (SHANK1, Q9Y566): below the threshold; pKd (PTPN3, P26045): 4.4; pKd (GRIP2_4, Q9C0E4): below the threshold
